The source of these data is the supplement of paper PMC10567573.

The labels stand for the following.
B1: ZBTB22 (parent)
chain: HTGLKPYECGVCAKKFMWRDSFMR
B2: RSPH3 (parent)
chain: VDVQTELYLEEIADRIIEVDMECQ
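Further: lentivirally expressed fusions sorted by FACS into six bins by GFP to DsRed ratio, PSI derived from sequencing read proportions per bin multiplied by bin number.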

In the first data set the parent is B1. The data set is described as follows: protein stability index of a GFP-peptide fusion (GPS, HEK-293T) (PSI 1-6); higher = more stable. The conditions noted are these: c terminus: a fixed tail appended.
Turning to HTGLKPYECGVCAKKFMWRDSFAR, the protein stability index turned out to be 3.12.

As for HTGLKPYECGVCAKKFMWRDSFKR, the protein stability index stood at 1.92.

For HTGLKPYECGVCAKKFMWRDSFYR, the protein stability index amounted to 2.82.

With HTGLKPYECGVCAKKFMWRDSFSR, the protein stability index amounted to 2.46.

For the variant HTGLKPYECGVCAKKFMWRDSFER, the protein stability index amounted to 4.04.

HTGLKPYECGVCAKKFMWRDSFNR: the protein stability index came to 2.22.

For the variant HTGLKPYECGVCAKKFMWRDSFRR, the protein stability index worked out at 2.64.

Take HTGLKPYECGVCAKKFMWRDSFFR: the protein stability index stood at 2.41.

For the variant HTGLKPYECGVCAKKFMWRDSFPR, the protein stability index was found to be 2.28.

In the case of HTGLKPYECGVCAKKFMWRDSFGR, the protein stability index came out at 1.69.

As for HTGLKPYECGVCAKKFMWRDSFTR, the protein stability index is 2.71.

For HTGLKPYECGVCAKKFMWRDSFQR, the protein stability index turned out to be 3.15.

As to HTGLKPYECGVCAKKFMWRDSFIR, the protein stability index turned out to be 1.88.

As to HTGLKPYECGVCAKKFMWRDSFVR, the protein stability index is 1.96.

Take HTGLKPYECGVCAKKFMWRDSFLR: the protein stability index was 1.85.

Turning to HTGLKPYECGVCAKKFMWRDSFHR, the protein stability index came out at 2.79.

Consider HTGLKPYECGVCAKKFMWRDSFWR, for which the protein stability index was 2.22.

As for HTGLKPYECGVCAKKFMWRDEFMR, the protein stability index turned out to be 1.78.

In the case of HTGLKPYECGVCAKKFMWRDPFMR, the protein stability index amounted to 3.07.

Turning to HTGLKPYECGVCAKKFMWRDFFMR, the protein stability index is 1.98.

With HTGLKPYECGVCAKKFMWRDWFMR, the protein stability index turned out to be 2.84.

With HTGLKPYECGVCAKKFMWRDIFMR, the protein stability index is 2.32.

With HTGLKPYECGVCAKKFMWRDLFMR, the protein stability index amounted to 3.24.

Turning to HTGLKPYECGVCAKKFMWRDYFMR, the protein stability index was found to be 2.58.

Turning to HTGLKPYECGVCAKKFMWRDHFMR, the protein stability index came to 2.26.

Regarding HTGLKPYECGVCAKKFMWRDTFMR, the protein stability index worked out at 1.73.

Regarding HTGLKPYECGVCAKKFMWRDNFMR, the protein stability index amounted to 1.49.

For HTGLKPYECGVCAKKFMWRDRFMR, the protein stability index was 1.08.

Take HTGLKPYECGVCAKKFMWRDQFMR: the protein stability index was found to be 1.83.

In the case of HTGLKPYECGVCAKKFMWRDGFMR, the protein stability index was 2.9.

Take HTGLKPYECGVCAKKFMWRDAFMR: the protein stability index came to 2.23.

Turning to HTGLKPYECGVCAKKFMWRDVFMR, the protein stability index was determined as 2.1.

HTGLKPYECGVCAKKFMWRDSEMR: the protein stability index came to 3.96.

For HTGLKPYECGVCAKKFMWRDSYMR, the protein stability index was 1.89.

With HTGLKPYECGVCAKKFMWRDSHMR, the protein stability index turned out to be 1.45.

Regarding HTGLKPYECGVCAKKFMWRDSRMR, the protein stability index stood at 1.56.

With HTGLKPYECGVCAKKFMWRDSTMR, the protein stability index is 1.74.

For HTGLKPYECGVCAKKFMWRDSNMR, the protein stability index turned out to be 1.49.

As to HTGLKPYECGVCAKKFMWRDSAMR, the protein stability index was 1.79.

As to HTGLKPYECGVCAKKFMWRDSDMR, the protein stability index was 3.47.

As for HTGLKPYECGVCAKKFMWRDSWMR, the protein stability index worked out at 1.53.

For the variant HTGLKPYECGVCAKKFMWRDSLMR, the protein stability index came out at 2.46.

For the variant HTGLKPYECGVCAKKFMWRDSSMR, the protein stability index was 1.66.

For HTGLKPYECGVCAKKFMWRDSPMR, the protein stability index stood at 2.07.

HTGLKPYECGVCAKKFMWRDSKMR: the protein stability index came out at 2.54.

HTGLKPYECGVCAKKFMWRDSQMR: the protein stability index came to 3.48.

Consider HTGLKPYECGVCAKKFMWRDSCMR, for which the protein stability index worked out at 2.21.

For the variant HTGLKPYECGVCAKKFMWRPSFMR, the protein stability index came to 1.72.

Turning to HTGLKPYECGVCAKKFMWRVSFMR, the protein stability index was 1.69.

In the case of HTGLKPYECGVCAKKFMWRQSFMR, the protein stability index is 1.74.

In the case of HTGLKPYECGVCAKKFMWRSSFMR, the protein stability index came out at 2.08.

On to HTGLKPYECGVCAKKFMWRYSFMR, for which the protein stability index was 2.74.

In the case of HTGLKPYECGVCAKKFMWRNSFMR, the protein stability index was determined as 2.48.

Regarding HTGLKPYECGVCAKKFMWRDSFMD, the protein stability index was found to be 1.37.

On to HTGLKPYECGVCAKKFMWRDSFMC, for which the protein stability index came out at 2.94.

As to HTGLKPYECGVCAKKFMWRDSFMK, the protein stability index turned out to be 1.71.

For the variant HTGLKPYECGVCAKKFMWRDSFMM, the protein stability index amounted to 3.19.

With HTGLKPYECGVCAKKFMWRDSFML, the protein stability index turned out to be 3.44.

For HTGLKPYECGVCAKKFMWRDSFMF, the protein stability index is 2.3.

With HTGLKPYECGVCAKKFMWRDSFMQ, the protein stability index is 1.6.

As to HTGLKPYECGVCAKKFMWRDSFMN, the protein stability index came to 3.03.

Consider HTGLKPYECGVCAKKFMWRDSFMT, for which the protein stability index was 3.9.

Turning to HTGLKPYECGVCAKKFMWRDSFMG, the protein stability index was determined as 1.87.

On to HTGLKPYECGVCAKKFMWRDSFMH, for which the protein stability index is 3.35.

With HTGLKPYECGVCAKKFMWRDSFMW, the protein stability index was 1.67.

For the variant HTGLKPYECGVCAKKFMWRDSFMS, the protein stability index worked out at 2.96.

For the variant HTGLKPYECGVCAKKFMWRDSFMI, the protein stability index was found to be 1.79.

Turning to HTGLKPYECGVCAKKFMWRDSFMV, the protein stability index turned out to be 2.82.

Another data set covers variants of B2. Described as above. The conditions noted are these: c terminus: a fixed tail appended.
Take VDVQKELYLEEIADRIIEVDMECQ: the protein stability index came to 3.87.

For VDVQRELYLEEIADRIIEVDMECQ, the protein stability index was found to be 3.09.

For VDVQGELYLEEIADRIIEVDMECQ, the protein stability index turned out to be 2.46.

VDVQDELYLEEIADRIIEVDMECQ: the protein stability index worked out at 3.17.

In the case of VDVQCELYLEEIADRIIEVDMECQ, the protein stability index is 1.75.

Turning to VDVQMELYLEEIADRIIEVDMECQ, the protein stability index worked out at 2.38.

For the variant VDVQAELYLEEIADRIIEVDMECQ, the protein stability index came out at 2.3.

For the variant VDVQPELYLEEIADRIIEVDMECQ, the protein stability index came out at 3.27.

For VDVQNELYLEEIADRIIEVDMECQ, the protein stability index turned out to be 3.23.

Turning to VDVQYELYLEEIADRIIEVDMECQ, the protein stability index turned out to be 3.42.

For the variant VDVQHELYLEEIADRIIEVDMECQ, the protein stability index amounted to 2.42.

For the variant VDVQFELYLEEIADRIIEVDMECQ, the protein stability index is 2.96.

As for VDVQSELYLEEIADRIIEVDMECQ, the protein stability index was 2.5.

Consider VDVQEELYLEEIADRIIEVDMECQ, for which the protein stability index came to 3.08.

As to VDVQQELYLEEIADRIIEVDMECQ, the protein stability index amounted to 2.52.

With VDVQTELALEEIADRIIEVDMECQ, the protein stability index turned out to be 4.03.

On to VDVQTHLYLEEIADRIIEVDMECQ, for which the protein stability index stood at 2.19.

For the variant VDVQTVLYLEEIADRIIEVDMECQ, the protein stability index is 2.24.

On to VDVQTGLYLEEIADRIIEVDMECQ, for which the protein stability index stood at 3.25.

For the variant VDVQTCLYLEEIADRIIEVDMECQ, the protein stability index came to 1.57.

As to VDVQTQLYLEEIADRIIEVDMECQ, the protein stability index came out at 2.14.

Turning to VDVQTMLYLEEIADRIIEVDMECQ, the protein stability index stood at 3.63.

In the case of VDVQTTLYLEEIADRIIEVDMECQ, the protein stability index stood at 1.83.

Consider VDVQTKLYLEEIADRIIEVDMECQ, for which the protein stability index was found to be 2.44.

For the variant VDVQTPLYLEEIADRIIEVDMECQ, the protein stability index stood at 3.41.

On to VDVQTSLYLEEIADRIIEVDMECQ, for which the protein stability index was determined as 2.39.
